In the Immune Epitope Database (IEDB) one finds Kd data, which are given here for seven sequences.

The target in one experiment is HLA-A*02:03. In words: IEDB peptide-MHC binding, purified MHC/direct/fluorescence; filed as Kd, often an IC50 or EC50 that approximates it; ≥ and ≤ were set here for values at or beyond the usual limits of such assays. As to conditions: source organism: Zaire ebolavirus.
The next experiment deals with HLA-A*02:12. The experiment is described as above. As to conditions: source organism: Zaire ebolavirus.
In another experiment the target is HLA-A*02:19. The experiment is described as above. As to conditions: source organism: Zaire ebolavirus.
A further experiment concerns the target HLA-A*68:02. The experiment is described as above. As to conditions: source organism: Zaire ebolavirus.
The target of a further experiment is HLA-A*23:01. The description is as above. Particulars: source organism: Zaire ebolavirus.
In a further experiment the target is HLA-A*24:03. The experiment is described as above. Particulars: source organism: Zaire ebolavirus.
Another experiment concerns the target HLA-A*02:11. The description is as above. As to conditions: source organism: Zaire ebolavirus.
The target in a further experiment is HLA-A*29:02. The experiment is described as above. As to conditions: source organism: Zaire ebolavirus.
A further experiment concerns the target HLA-A*02:16. Described as above. Particulars: source organism: Zaire ebolavirus.
In the next experiment the target is HLA-B*15:17. Description: IEDB peptide-MHC binding, purified MHC/competitive/fluorescence; filed as Kd, often an IC50 or EC50 that approximates it; ≥ and ≤ were set here for values at or beyond the usual limits of such assays. Particulars: source organism: Zaire ebolavirus.
In experiment [1] the target is HLA-B*15:01. The experiment is described as above. Particulars: source organism: Zaire ebolavirus.
Experiment [2] addresses HLA-A*02:01. The experiment is described as above. Particulars: source organism: Zaire ebolavirus.
Another experiment deals with HLA-B*18:01. The description is as above. Particulars: source organism: Zaire ebolavirus.
Another experiment concerns the target HLA-B*27:03. Described as above. Particulars: source organism: Zaire ebolavirus.
For the next experiment, the target named is HLA-B*51:01. Described as above. As to conditions: source organism: Zaire ebolavirus.
Experiment [3] has as its target HLA-A*03:01. Described as above. As to conditions: source organism: Zaire ebolavirus.
A further experiment has as its target HLA-B*46:01. The description is as above. Particulars: source organism: Zaire ebolavirus.
Experiment [4] has as its target HLA-A*69:01. The description is as above. Particulars: source organism: Zaire ebolavirus.
The next experiment has as its target HLA-B*39:01. The description is as above. Particulars: source organism: Zaire ebolavirus.
The target in experiment [5] is HLA-A*26:01. Described as above. Particulars: source organism: Zaire ebolavirus.
A further experiment concerns the target HLA-B*57:01. The experiment is described as above. Particulars: source organism: Zaire ebolavirus.
In a further experiment the target is HLA-B*15:02. Described as above.
The next experiment addresses HLA-B*73:01. Description: IEDB peptide-MHC binding, purified MHC/direct/fluorescence; filed as Kd, often an IC50 or EC50 that approximates it; ≥ and ≤ were set here for values at or beyond the usual limits of such assays.
The target in a further experiment is HLA-B*58:01. Described as above.
Experiment [6] deals with HLA-B*15:01. The description is as above.
In experiment [7] the target is HLA-A*02:01. The description is as above.
A further experiment deals with HLA-B*08:01. Described as above.
In a further experiment the target is HLA-A*01:01. Described as above.
Experiment [8] addresses HLA-A*03:01. Described as above.
Another experiment has as its target HLA-A*30:01. The experiment is described as above. As to conditions: source organism: Brucella melitensis.
For the next experiment, the target named is HLA-B*40:01. Described as above.
The target in a further experiment is HLA-A*11:01. The experiment is described as above.
Experiment [9] concerns the target HLA-A*69:01. Described as above.
A further experiment has as its target HLA-B*27:05. The experiment is described as above.
Experiment [10] has as its target HLA-A*26:01. The description is as above.
The next experiment deals with HLA-B*44:02. The description is as above.
For another experiment, the target named is HLA-B*07:02. The description is as above.
A further experiment has as its target HLA-A*31:01. The description is as above.
The target in a further experiment is HLA-B*35:01. The experiment is described as above. Particulars: source organism: Giardia lamblia ATCC 50803.
Setting [11] is: source organism: Giardia lamblia ATCC 50803.
[12] abbreviates: source organism: Brucella abortus.
Setting [13] is: source organism: Brucella melitensis.

On to SLLHESTLK, for which the Kd with HLA-A*02:03, with HLA-A*02:12, with HLA-A*02:19, in the experiment with HLA-A*68:02, with HLA-A*23:01 and with HLA-A*24:03 was at least 20 µM throughout. The dissociation constant Kd with HLA-A*02:11, with HLA-A*29:02, with HLA-A*02:16, in the experiment with HLA-B*15:17, with HLA-B*15:01 [1] and with HLA-A*02:01 [2] was at least 20 µM in each case. Besides, the Kd in the experiment with HLA-B*18:01 is at least 20 µM; with HLA-B*27:03 it was at least 20 µM; with HLA-B*51:01 it was at least 20 µM; in the experiment with HLA-A*03:01 [3], 0.0241 µM; with HLA-B*46:01 it was at least 20 µM; with HLA-A*69:01 [4], at least 20 µM. Besides, the equilibrium dissociation constant (Kd) with HLA-B*39:01, with HLA-A*26:01 [5] and in the experiment with HLA-B*57:01 was at least 20 µM throughout.

Consider WLRAMPPRM, for which, in the experiment with HLA-B*15:02 (source organism: Vibrio vulnificus YJ016), the Kd was at least 20 µM.

In the experiment with HLA-B*15:02 (setting [11]), NTFAAWLPM came in with a dissociation constant (Kd) of 0.193 µM.

Regarding SRIGAWASK, the Kd with HLA-B*73:01 (source organism: Brucella suis 1330), in the experiment with HLA-B*58:01 (setting [12]), with HLA-B*15:01 [6] (setting [12]), with HLA-A*02:01 [7] (setting [12]), with HLA-B*08:01 (setting [12]) and with HLA-A*01:01 (setting [12]) was at least 20 µM in each case. Besides, the equilibrium dissociation constant (Kd) with HLA-A*03:01 [8] (setting [13]) is 5.83 µM; with HLA-A*30:01, 1.27 µM; with HLA-B*40:01 (setting [12]), at least 20 µM; in the experiment with HLA-A*11:01 (setting [13]) it was 1.22 µM; with HLA-A*69:01 [9] (setting [12]), at least 20 µM; with HLA-B*27:05 (setting [13]), 0.0531 µM. The equilibrium dissociation constant (Kd) with HLA-A*26:01 [10] (setting [12]), with HLA-B*44:02 (setting [12]), with HLA-B*07:02 (setting [12]) and with HLA-A*31:01 (setting [12]) was at least 20 µM each time.

Consider NMQESSKSF, for which the equilibrium dissociation constant (Kd) in the experiment with HLA-B*15:02 (source organism: Orientia tsutsugamushi str. Ikeda) was 0.0643 µM.

As for GRYNLISPK, the equilibrium dissociation constant (Kd) in the experiment with HLA-A*02:03, in the experiment with HLA-A*02:12, in the experiment with HLA-A*02:19, with HLA-A*68:02, in the experiment with HLA-A*23:01 and with HLA-A*24:03 was at least 20 µM throughout. The Kd with HLA-A*02:11 is at least 20 µM; in the experiment with HLA-B*27:05 (source organism: Ebola virus - Gabon (1994-1997)), 0.0746 µM; with HLA-A*29:02, at least 20 µM; with HLA-A*02:16, at least 20 µM; in the experiment with HLA-B*15:17, at least 20 µM; in the experiment with HLA-B*15:01 [1], at least 20 µM. In addition, the dissociation constant Kd in the experiment with HLA-A*02:01 [2], in the experiment with HLA-B*18:01, in the experiment with HLA-B*51:01, with HLA-B*46:01, in the experiment with HLA-A*69:01 [4] and in the experiment with HLA-B*39:01 was at least 20 µM throughout. Moreover, the dissociation constant (Kd) with HLA-A*26:01 [5] and with HLA-B*57:01 was at least 20 µM throughout.

Take RHIAIQVCY: the Kd is at least 20 µM in the experiment with HLA-B*73:01 (setting [11]); at least 20 µM with HLA-B*58:01 (setting [11]); 1.73 µM with HLA-B*15:01 [6] (setting [11]); at least 20 µM with HLA-A*02:01 [7] (setting [11]); at least 20 µM with HLA-B*08:01 (setting [11]); at least 20 µM in the experiment with HLA-A*01:01 (setting [11]). Besides, the Kd with HLA-A*03:01 [8] (setting [11]) is at least 20 µM; in the experiment with HLA-B*40:01 (setting [11]), at least 20 µM; with HLA-A*11:01 (setting [11]), at least 20 µM; with HLA-A*69:01 [9] (setting [11]) it was at least 20 µM; with HLA-B*27:05 (setting [11]) it was 3.36 µM; with HLA-A*26:01 [10] (setting [11]), at least 20 µM. In addition, the Kd with HLA-B*44:02 (setting [11]) was at least 20 µM; with HLA-B*35:01, 1.19 µM; in the experiment with HLA-B*07:02 (setting [11]) it was at least 20 µM; in the experiment with HLA-A*31:01 (setting [11]) it was at least 20 µM.

The Kd is the free concentration of one partner at which half of the binding sites on the other are occupied at equilibrium, for simple one-to-one binding.
